This note sets out measurements from article PMC4182932 (Current protocols in protein science / editorial board, …, 2014).

The data set deals with the molecule itself. As to the kind of experiment: AUC.

B1: βB1-crystallin (natural protein, human, UniProt P53674 1-252, looked up)
chain: MSQAAKASASATVAVNPGPDTKGKGAPPAGTSPSPGTTLAPTTVPITSAKAAELPPGNYRLVVFELENFQGRRAEFSGECSNLADRGFDRVRSIIVSAGPWVAFEQSNFRGEMFILEKGEYPRWNTWSSSYRSDRLMSFRPIKMDAQEHKISLFEGANFKGNTIEIQGDDAPSLWVYGFSDRVGSVKVSSGTWVGYQYPGYRGYQYLLEPGDFRHWNEWGAFQPQMQSLRRLRDKQWHLEGSFPVLATEPPK
Turning to B1, the “stoichiometry N” value stood at 2.
